{"source": "patent CN113735970A", "about": "(INST MILITARY MEDICINE ACADEMY MILITARY SCIENCES PLA, dated 2021)", "binders": {"B1": {"name": "抗SARS-CoV-2全人源单克隆抗体ZWC6 (antibody, human IgG1, kappa, V domains shown)", "VH": "EVQLVESGGGVVQPGTSLRLSCAASGFSFSHYVMYWVRQAPGKGLDWVAIISFDGSSQYYADSVKGRFTISRDNSKDTLYLQMHSLRPEDTAVYYCAIHGGTYYYDKNILAWGQGTLVTVSS", "VL": "AIRMTQSPPTLSLSPGERATLSCRASQSVTNYLVWYQQKPGQAPRLLIYDTFNRATGIPARFSGSGSGTDFTLTISSLEPEDFAVYYCQQRSNWPPTFGQGTKVDIKR"}}, "key": {"SARS-CoV-2 WT S-ECD蛋白": {"biological_target": "SARS-CoV-2 WT S-ECD蛋白 (SARS-CoV-2, UniProt P0DTC2 14-1213)"}, "SARS-CoV-2 WT RBD蛋白": {"biological_target": "SARS-CoV-2 WT RBD蛋白 (SARS-CoV-2, UniProt P0DTC2 319-541)"}}, "data": [{"binder": "B1", "values": [{"measurement": "Kd", "setting": "SARS-CoV-2 WT S-ECD蛋白", "result": 1.49, "unit": "nM"}, {"measurement": "koff", "setting": "SARS-CoV-2 WT S-ECD蛋白", "result": 0.000255, "unit": "s⁻¹"}, {"measurement": "kon", "setting": "SARS-CoV-2 WT S-ECD蛋白", "result": 171000, "unit": "M⁻¹ s⁻¹"}, {"measurement": "Kd", "setting": "SARS-CoV-2 WT RBD蛋白", "result": 0.683, "unit": "nM"}, {"measurement": "koff", "setting": "SARS-CoV-2 WT RBD蛋白", "result": 0.000365, "unit": "s⁻¹"}, {"measurement": "kon", "setting": "SARS-CoV-2 WT RBD蛋白", "result": 535000, "unit": "M⁻¹ s⁻¹"}]}]}
